According to patent US20180030144A1 (INNATE PHARMA, published 2018):
Numbering of substitutions follows the chain as printed. Names may count otherwise. Values belong to the binder of their own block, whether it stands above or below them.

How the values were obtained:
[1] = target: T1, recombinant human CD73-His extracellular domain protein (soluble dimer) (human, UniProt P21589 27-547); experiment: cell-based or functional assay
T1 sequence: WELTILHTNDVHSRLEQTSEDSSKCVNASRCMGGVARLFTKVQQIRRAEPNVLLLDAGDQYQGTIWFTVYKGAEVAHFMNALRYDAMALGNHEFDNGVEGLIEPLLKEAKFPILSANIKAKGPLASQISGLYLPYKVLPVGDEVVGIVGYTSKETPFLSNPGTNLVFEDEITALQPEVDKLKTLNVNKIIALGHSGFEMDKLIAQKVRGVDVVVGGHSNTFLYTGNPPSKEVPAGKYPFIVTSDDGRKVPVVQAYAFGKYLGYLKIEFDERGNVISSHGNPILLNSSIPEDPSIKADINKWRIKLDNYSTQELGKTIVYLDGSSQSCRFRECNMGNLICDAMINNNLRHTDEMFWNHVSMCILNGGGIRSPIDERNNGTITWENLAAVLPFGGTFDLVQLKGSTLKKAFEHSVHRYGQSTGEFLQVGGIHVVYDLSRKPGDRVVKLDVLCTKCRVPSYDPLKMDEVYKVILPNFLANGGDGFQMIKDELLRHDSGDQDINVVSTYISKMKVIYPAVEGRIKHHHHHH

[2] = target: T2, human CD73 expressed at the cell surface (human, UniProt P21589 27-549); experiment: cell-based or functional assay
T2 sequence: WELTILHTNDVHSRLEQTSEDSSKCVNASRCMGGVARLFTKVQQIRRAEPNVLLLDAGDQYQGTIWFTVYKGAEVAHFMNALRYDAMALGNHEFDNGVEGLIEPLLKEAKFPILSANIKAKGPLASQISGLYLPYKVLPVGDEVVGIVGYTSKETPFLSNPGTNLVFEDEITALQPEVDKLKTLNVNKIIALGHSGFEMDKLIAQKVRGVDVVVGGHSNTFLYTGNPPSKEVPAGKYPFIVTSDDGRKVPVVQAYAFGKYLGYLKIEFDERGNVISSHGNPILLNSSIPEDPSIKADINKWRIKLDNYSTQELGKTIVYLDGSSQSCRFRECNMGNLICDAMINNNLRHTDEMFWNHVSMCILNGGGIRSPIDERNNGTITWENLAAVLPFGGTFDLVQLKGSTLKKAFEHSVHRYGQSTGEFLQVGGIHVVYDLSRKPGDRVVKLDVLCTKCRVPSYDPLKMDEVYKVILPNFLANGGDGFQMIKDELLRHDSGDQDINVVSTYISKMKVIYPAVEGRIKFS

[3] = target: T2, human CD73 expressed at the cell surface; experiment: flow cytometry on MDA-MB-231 cells pre-incubated with 200 µM APCP
Procedure: MDA-MB-231 cells are available from ATCC (reference HTB-26). 10⁵ cells resuspended in PBS/0.2% BSA/0.02% NaN3 (named “staining buffer”) are distributed into round bottom 96W-microplates. Dose-range of anti-CD73 antibodies was added to the plates and cells are incubated for 45 min at 4° C. Cells were washed three times in staining buffer by spinning plates at 400 g for 3 min at 4° C. PE-coupled goat anti-mouse or goat anti-human IgG Fc fragment secondary antibodies (Beckman Coulter) diluted in staining buffer were added to the cells and plates are incubated for 30 additional minutes at 4° C. Cells were washed three times as described above and analyzed on an Accury C6 flow cytometer equipped with an HTFC plate reader.
Cells were pre-incubated at 37° C. for 30 minutes in the presence or not of 200 μM adenosine 5′-(α,β-methylene)diphosphate (APCP), followed by addition of antibodies. APCP is an analog of ADP and binds irreversibly to the active site of CD73. When bound by APCP, CD73 changes conformation from an “open” conformation to a “closed” conformation. mAbs 11E1, 8C7, 3C12 and 6E1 bound MDA-MB-231 cells with good affinity both in the presence and absence of APCP. In the presence of APCP, the EC50 was similar to that observed in the absence of APCP. The plateau for maximal binding of 11E1, 8C7, 3C12 and 6E1 was higher in the absence of APCP than in the presence of APCP, while the inverse was true for AD2.

[4] = target: T2, human CD73 expressed at the cell surface; experiment: flow cytometry titration on HEK293T cells transfected with wild type human CD73, mean of fluorescence

- EC50 for CD73 blockade (enzymatic activity of soluble recombinant human CD73-his) [1]: 0.41 µg/mL
- EC50 for neutralization of the enzymatic activity of cellular CD73 (MDA-MB-231 cells, free phosphate from AMP) [2]: 0.195 µg/mL
- EC50 [3]: 0.0375 µg/mL
B1: antibody 11E1 (antibody, human IgG1, V domains shown)
VH: EIQLQQSGPELVKPGASVKVSCKASGYAFTSYNMYWVKQSHGKSLEWIGYIDPYNGGTSYNQKFKGKATLTVDKSSSTAYMHLNSLTSEDSAVYYCARGYGNYKAWFAYWGQGTLVTVSA
VL: DAVMTQTPKFLLVSAGDRVTITCKASQSVTNDVAWYQQKPGQSPKLLIYYASNRYTGVPDRFTGSGYGTDFTFTISTVQAEDLAVYFCQQDYSSLTFGAGTKLELK
notes: Produced as chimeric human IgG1 with heavy chain N297Q (Kabat EU numbering); also called 1E11

- EC50 for CD73 blockade (enzymatic activity of soluble recombinant human CD73-his) [1]: 0.41 µg/mL
- EC50 for neutralization of the enzymatic activity of cellular CD73 (MDA-MB-231 cells, free phosphate from AMP) [2]: 0.21 µg/mL
- EC50 [3]: 0.0431 µg/mL
- EC50 (read off the curve) [4]: ~0.2 µg/mL
B2: antibody 3C12 (antibody, human IgG1, V domains shown)
VH: B1 VH with E1Q, T30A, Y35N, E46D, T58S, Q62L, K63T, S77T
VL: DVVMTQTPKFLLVSAGDRVTITCKASQSVSNDVAWYQQKPGQSPKLLIYYASTRYTGVPDRFTGSGYGTDFTFTISTVQAEDLAVYFCQQDYSSLTFGAGTKLELKR
notes: Produced as chimeric human IgG1 with heavy chain N297Q (Kabat EU numbering); RTVAAP)

- EC50 for CD73 blockade (enzymatic activity of soluble recombinant human CD73-his) [1]: 0.33 µg/mL
- EC50 for neutralization of the enzymatic activity of cellular CD73 (MDA-MB-231 cells, free phosphate from AMP) [2]: 0.209 µg/mL
- EC50 [3]: 0.0395 µg/mL
B3: antibody 6E1 (antibody, human IgG1, V domains shown)
VH: B1 VH with I2F, S44R, T58S, S85N, G101N
VL: B1 VL with D1S, A2I, V78M
notes: Produced as chimeric human IgG1 with heavy chain N297Q (Kabat EU numbering)
